Test results as given in patent US20090186842, “Methods and compositions for inhibition of viral replication” (published 2009).

T1: GST-TIA-1 RRM2 (UniProt P31483 P31483:106-184)
T1 sequence: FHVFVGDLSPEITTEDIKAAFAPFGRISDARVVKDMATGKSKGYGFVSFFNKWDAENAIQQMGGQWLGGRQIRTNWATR

T2: GST-TIAR RRM3 (UniProt Q01085 Q01085:205-277)
T2 sequence: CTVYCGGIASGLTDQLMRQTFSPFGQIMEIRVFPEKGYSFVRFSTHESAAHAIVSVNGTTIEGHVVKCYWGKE

T3: GST-TIAR RRM1 (UniProt Q01085 Q01085:9-85)
T3 sequence: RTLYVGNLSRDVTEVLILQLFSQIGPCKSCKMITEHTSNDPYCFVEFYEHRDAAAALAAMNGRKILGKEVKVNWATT

T4: GST-TIA-1 RRM1 (UniProt P31483 P31483:7-83)
T4 sequence: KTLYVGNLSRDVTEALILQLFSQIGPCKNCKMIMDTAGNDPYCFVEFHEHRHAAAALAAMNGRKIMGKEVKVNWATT

T5: GST-TIA-1 RRM3 (UniProt P31483 P31483:214-286)
T5 sequence: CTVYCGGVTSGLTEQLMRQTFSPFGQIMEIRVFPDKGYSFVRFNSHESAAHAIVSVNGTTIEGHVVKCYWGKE

T6: GST-TIAR RRM2 (UniProt Q01085 Q01085:97-175)
T6 sequence: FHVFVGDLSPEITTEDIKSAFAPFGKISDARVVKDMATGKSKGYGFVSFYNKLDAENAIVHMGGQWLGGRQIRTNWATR

T7: TIARa (rTIAR) (Mus musculus, UniProt P70318 P70318:1-392)
T7 sequence: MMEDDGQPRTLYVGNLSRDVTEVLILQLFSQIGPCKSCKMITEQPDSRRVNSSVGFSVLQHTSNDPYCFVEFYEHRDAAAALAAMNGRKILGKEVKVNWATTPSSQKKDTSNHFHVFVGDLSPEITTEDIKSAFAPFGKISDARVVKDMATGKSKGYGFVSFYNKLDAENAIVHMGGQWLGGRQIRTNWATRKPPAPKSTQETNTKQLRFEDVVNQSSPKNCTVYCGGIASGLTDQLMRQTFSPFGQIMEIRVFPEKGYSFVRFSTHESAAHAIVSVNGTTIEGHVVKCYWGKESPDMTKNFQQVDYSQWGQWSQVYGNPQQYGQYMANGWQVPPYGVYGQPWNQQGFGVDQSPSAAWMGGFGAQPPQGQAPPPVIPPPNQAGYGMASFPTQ


What was measured:
GST-TIA-1 RRM2 = target: T1, GST-TIA-1 RRM2; experiment: EMSA; SD 15 nM, n=1.1; details: tags: GST fusion; label: 32P; stem-loop
GST-TIAR RRM3 = target: T2, GST-TIAR RRM3; experiment: EMSA; 200 nM protein; details: tags: GST fusion; label: 32P; stem-loop
GST-TIAR RRM1 = target: T3, GST-TIAR RRM1; experiment: EMSA; 200 nM protein; details: tags: GST fusion; label: 32P; stem-loop
GST-TIA-1 RRM1 = target: T4, GST-TIA-1 RRM1; experiment: EMSA; 500 nM protein; details: tags: GST fusion; label: 32P; stem-loop
GST-TIA-1 RRM3 = target: T5, GST-TIA-1 RRM3; experiment: EMSA; 500 nM protein; details: tags: GST fusion; label: 32P; stem-loop
GST-TIAR RRM2 = target: T6, GST-TIAR RRM2; experiment: EMSA; SD 5 nM, n=1.2; details: tags: GST fusion; label: 32P; stem-loop
TIARa (rTIAR) = target: T7, TIARa (rTIAR); experiment: EMSA; 5-90 nM protein, 0.2 nM RNA, 1 mM MgCl2, 30 mM KCl, RT; details: tags: C-terminal His6; label: 32P; stem-loop; AU-rich loops L1, L2, L3

Binder | Kd (GST-TIA-1 RRM2) [nM] | binding result (GST-TIAR RRM3) | binding result (GST-TIAR RRM1) | binding result (GST-TIA-1 RRM1) | binding result (GST-TIA-1 RRM3) | Kd (GST-TIAR RRM2) [nM] | binding result (TIARa (rTIAR))
WNV 3'(-)SL RNA with 5' CCC (ssRNA) RNA: CCCCAGCUCGCACCGUGUUAAUUGUUGUUAAUCCUCACAAACACUACUAAGUUUGUCAGCUCACACAGGCGAACUACU | 112 | no binding | no binding | no binding | no binding | 15 | –
WNV3'(-)SL RNA (ssRNA) RNA: CAGCUCGCACCGUGUUAAUUGUUGUUAAUCCUCACAAACACUACUAAGUUUGUCAGCUCACACAGGCGAACUACU | – | – | – | – | – | – | binds
